# Experimental data taken from patent publication US20160040149A1, “Compositions Having Dicamba Decarboxylase Activity and Methods of Use” (priority 2013, published 2016).
# Assay: Saturation mutagenesis of SEQ ID NO:109: dicamba decarboxylation activity of point mutants (CO2 released), fold of backbone (Tables 7, 8, Megatable 1)
# Details: decarboxylation activity (CO2 released) of point mutant vs unmutated backbone protein; backbone SEQ ID NO: 109
row,Molecule,Fold Activity [fold]
1,"17 (protein, Aspergillus niger) MARGKIALEEAFEVKGMDEEIDAQAALYIAPKDVERYKRQIVSITDERLQLSDQNGIGYSILSLTVPGIQGITDKDKAEKRARDVNNYIHDQIKDHRDRLGAFAALSMHDPRQAGHELRRCVKELGFHGALLNDVQHTGEGDDDQPLFYDQPDYDEFWRVAVELDVPVYLHPAAPLRDTLIYKQSYEDRKYLVGPPQSYCNGVALHLMGIIVNGVFDRFPNLKVIVGHMGERIPFDFWRMDHWVKGVTRPLAEKNGDTVCQKEPLYYFKRNIYITTSGHFSTQNLRYLYEWLGDERMMFSVDFPYERMEHGCQWYDDDAEKIKEALGGRDGYLRVGRDNARRLFKLTKFKDCDAV",1.8
2,"18 (protein, listed as Legionella pneumophila) MAIVDFETHFITEACIDYLTQRQEVPKLVPELNGAYTMCFTPDVSLFHTSALMEELLSLNEQRLAIMDQAGVTIQVLSLTTINGIDSCPGDENKSTALAREVNDQLYSAIQKHPERFKGFASISPYDVKEGVKELERAISQLGFVGWLTHSNFGQDNYLDDKIYWPLLEAAESLNIPIYLHPNVPIMREFGKYGFALGGSALGFEFDTALCLMRMILGGVFDAFPKLKIMLGHLGETMPFLMERLDHLYRIPDLKPYRPSIQRIPSEVLRQNVYITTSGRFFVPALRYVLEVMGEDRVLFASDYPMESLLDATRFIQDSDLSNQTKQKIFSINAKNLNLI",1.2
3,"19 (protein, listed as Talaromyces marneffei) MATPIITLEEHYISSAIRDASETDHYAVFPSQIISKLNTLSTERLQDLDNGHVSLQVISHGPGAQPPYLCQAANDELASAISANPTRFAGFALLPIAEPQLAVQELERCITQHKFVGALIDNHTNGQFYDDQKFWPVFEKAQELDAPIYVHPSYPDEESGVAAHYRGNYDDRIAAALGAYGWGWHSDTALSILRLFAAGLFDTYPNIKIIIGHMGEMLPFQLERVIGIASRFGRSRGLREVWTQNIWVTTSGMFALAPLACLLQTMPIERVLYSVDYPFSANEKGFAFLEEIKKSGLIKEGEDWERFLYKNAQELLKVNV",1.6
4,"20 (protein, listed as Legionella pneumophila) MAIVDFETHFITEACIDYLTQRQEVPKLVPDLNGAYTMCFTPDVSLFHTSALMEELLSLNEQRLAIMDQAGVTIQVLSLTTINGIDSCPGDENKSTALAREVNDQLYSAIQRHPERFKGFASISPYDVKEGVKELERAISQLGFVGWLTHSNFGQDNYLDDKTYWPLLEAAEGLNIPIYLHPNVPIMREFGKYGFALGGSALGFEFDTALCLMRMILGGVFDAFPKLKIMLGHLGETMPFLMERLDHLYRIPDLKAYRPSIQRIPSEVLRQNVYITTSGRFFVPALRYVLEVMGEDRVLFASDYPMESLLDATRFIQDSDLSNQTKQKIFSINAKNLNLI",1.8
5,"21 (protein, listed as Agrobacterium tumefaciens) MAQGKVALEEHFAIPETLQDSAGFVPGDYWKELQHRLLDIQDTRLKLMDAHGIETMILSLNAPAVQAIPDRKKAIEIARRANDVLAEECARRPDRFLAFAALPLQDPDAATQELQRCVNDLGFVGALVNGFSQEGDGQTPLYYDLPQYRPFWGEVEKLDVPFYLHPRNPLPQDSRIYDGHPWLLGPTWAFAQETAVHALRLMASGLFDAHPRLNIILGHMGEGLPYMMWRIDHRNAWVKLPPRYPAKRRFVDYFNENFHITTSGNFRTQTLIDAILEIGADRILFSTDWPFENIDHASDWFNATTIAEADRVKIGRTNARRLFKLDGR",1.9
6,"22 (protein, listed as Staphylococcus epidermidis) MAKSINFEEHYVVDDIQKETMKYMSSDPNGVPMQTMLKGLEQKSGFTNADDITKHDERIKFMDEHDVEMQVLSYGNGAPSNLEGERAIELCQQANDTLAKYVNEHPDRFVGFATLPINEPQAAVEEFKRCIKELGFKGALIMGHPKNGFLDQDQYDDLFATAEALNVPIYLHPSPVQSDVYQAYYKGNYSDVTAATFACFGYGWHVDVGIHAIHLVLSGVFDRHPNLNMIIGHWGEFVPFFLERMDDILFADHLEHPISYYFKNNFYITPSGMLTKPQFDLVKAEVGVDRILYSADYPYVEPDKLGTFLDELDLTEEEKEKISYKNGAKLLGLEK",1.6
7,"23 (protein, listed as Aplysina aerophoba) MAIDIDARSQPGLETARRAMSRRDFLGGAAAFGITAAATTALPASTAAGEEEDLFLLGLEEHFATAELRRLNGIQFPQGTPRFDINDVGAGRIADMDAAGIDIQVLSALTPGAQNLPGAEGVAYARRLNSWVAHEVIPAYPGRFRAFATLPLSEPQAAADELEYAVRELGFLGCMTYGAVDGKFLDHADFVPVLARAETLDVPIYIHPNWASPQVMDTYYNGLGNEWVSRVLSGAGYGWHQEVALQCLRMIASGVFDRFPRLQIIVGHMGEGLPFFYWRFGDDLARITADTLEKPVQQYFHDNFWITTSAFFRDELLRLVLSVMGEDRVMFAVDYPFVSNKVGADWFRAVDLPRNVKEKIAHKNAERLLKIGPF",1.5
8,"24 (protein, Aspergillus niger) MALGKVVLEEAYERPNMKEKSNHEAGLYIAPNDRPRYMRQINDINQERLKLADAHGVGYTIISLTVPGIQGIFDKTEAERVATETNNWAAEQIKNHRDRLGAFACLSMHDPAQAANELRRCVQELGFHGALLCSFQHAGPDGETYLFYDQPKYDVFWKALTELDVPLYIHPAAPTGSILERLYAQRPALIGPPLSFANDVSLHTLGIISNGVFDRFPNLKIIIGHLGEHIPFDFWRIDHWFRDVKKPIADEEGRVMAQKSLYHYFKHNIWLTTSGHFSTPTLKYVVNEIGVDRVLFSVDYPYETTESGCNWWDHDKDAIVEAVGGVDNYYAIGRENAKKLLRLDKFHDSDAR",1.6
9,"25 (protein, listed as Acidovorax avenae) MAQGKIGLEEHFAIPETLQDSAGFVPGDYWKELSLRLLDIHERRLREMDENGMEMMILSLNAPAVQAIPDTKKAVEIAVRANDFLAEQVARRPDRFQAFAALPMQDPDLATRELERCMQDLGFRGALVNGFSQVGTPENVVYYDAPQYGDFWAAVERLDAPFYLHPRNPIASWAQIYQGHPWLMGPTWAFAQETAVHALRLMASGLFDRHPGLRIILGHLGEGLPYNMWRVDHRNAWVDMPKGYPAKRKLCDYFHENFYLTTSGNFRTQTLIDALLEVGADRILFSTDWPFENVDHAAHWFDDAAISEADRLKIGRTNALSLFKLPQG",1
10,"26 (protein, listed as Variovorax paradoxus) MATHMAPMKNKIALEEHFAIDLTIADSQVYARPEVWQGLKSNLLDFEQQRLEKMDEWGTEFSILSLNSPAVQGIPDAKRAIEVAQRANDVLAEQVKRHPTRFGGFAALPMQDPEASARELERCVNQLGFHGFLVNGFSQVGDENIVVYYDDARFNDFWTAAAALKKPFYMHPRDPLLAREPIYDGAHWLTGPTWAFAMETAIHALRLMSSGMFDRHPALQMILGHFGEGIPFNIWRVDHILRKGRRGMPCDKEIGEYLRSNVHITTSGNFRTPTLLSTMLEVGSDRIMYSVDYPFEKHEDAARWFDTCEISENDRQKIGRDNARKLFGLK",1.2
11,"27 (protein, listed as Aspergillus oryzae) MALGKIALEEAFALPRFEEKTRWWASLFSTDAETHVKEITDINKIRIEHADKHGVGYQILSYTAPGVQDIWDPVEAQALAVEINDYIAEQVRVNPDRFGAFATLSMHNPKEAADELRRCVEKYGFKGALVNDTQRAGPDGDDMIFYDNADWDIFWQTCTELDVPFYMHPRNPTGTIYEKLWADRKWLVGPPLSFAHGVSLHVLGMVTNGVFDRHPKLQIIMGHLGEHVPFDMWRINHWFEDRKKLLGLAETCKKTIRDYFAENIWITTSGHFSTTTLNFCMAEVGSDRILFSIDYPFETFSDACEWFDNAELNGTDRLKIGRENAKKLFKLDSYKDSSA",1
12,"28 (protein, listed as Sphingomonas paucimobilis) MARLIATEEAVTFQPVVDALRAHSRTDDASLDMILVRDVYGDEPARPAMIGRLSDVTGERLAEMDSNGVDMHLLSLTAPGVQMFDAETGTRLARIANDLMAQTVAANPTRFAGLGTFAPQDPASAAREIERVATQLRLNGLVINSHTNDLYYDDPFFHPVFEAIEASGLALYIHPRAPSKQIDRAFRDYGMNSAIWGYGIETSTNAVRMILSGLFDRFPRLKIVLGHMGEAIPFWLWRLDYMHGNATTFGGAPKLKLKPSEYFRRNFAITTSGVESHAALRYSIEVLGPENVMWAIDYPYQPMAPAVQFIRTAPIPEDVKAMVAGGNAARIFRIT",1.2
13,"29 (protein, listed as Pseudovibrio sp.) MAGRRDFLRKSVAAGVGLTAAAQLSAGGAQATVPDTSNIPLITLEEHFTTPELQSKNTSGDKRLFSGGGSRPELLDVGAGRIADMDEAGIDIQVLSTVTPGASKITGAEGVEFTRKFNTWIAEEVIAAYPNRFRAFATLPLSSPEAAADELERSVREYGFVGTMTYGPIDGKFLDHADYAPLLARAEALGVPIYIHPNWPSPTAMQAYYDGLGDDLTSRILSGPGYGWHQEIAVQCLRLIVGGVFDRFPNLQIVVGHMGEGLPFYYWRVGEDLDRIAQKRLQKPVQQYFHDNLWITTSAFFRDELLNLALATMGEDRVMFSVDYPMASAKVGADWLRAADIPLATKEKIGSKNAMKLLGIDKI",1.5
14,"30 (protein, Enterobacter aerogenes) MARGKIALEEHVSTPENNRLWDSTGEANRNGSEYMQDVERRLLDRSIQLEEMAQRNIDHVILSLTSPGAQSILDKAKAVSFARDTNDFIVDNYVKPNPDKFSAFATLALQNPEAAAEELERAVKKLGMKGALINGYTNVKDSEHGLYLDDESMLVFWDKVNELNVPVYLHPREPLEGPARGIYTGYESLIGSAWGFAQETAVHAIRLMMSGLFDRYPNLNLVLGHLGEGLVHMLPRTQHRLYRQRFGCGLGKAEKPLMHYLQNNFIVTTSGHFNTHSLNNAIEVMGADRVMFSVDYPYEDIHQACDWFDPLEMDEGLKEKIAWGNASRVFNIK",2
15,"31 (protein, listed as Agrobacterium sp.) MAQGKVALEEHFAIPETLQDSAGFVPGDYWKELQHRLLDIQDTRLKLMDAHGIETMILSLNAPAVQAIPDKTKAIEIARRANDVLAEECAKRPDRFLAFAALPLQDPDAATEELQRCVNDLGFVGALVNGFSQEGDGQTPLYYDLPQYRPFWGEVEKLDVPFYLHPRNPLPQDSRIYDGHPWLLGPTWAFAQETAVHALRLMASGLFDEHPRLNIILGHMGEGLPYMMWRIDHRNAWVKLPPRYPAKRRFMDYFNENFHITTSGNFRTQTLIDAILEIGADRILFSTDWPFENIDHASDWFNATSIAEADRVKIGRTNARRLFKLDGA",1.7
